We go through one molecule from patent publication US20160303225A1 (HENRY M JACKSON FOUNDATION FOR THE ADVANCEMENT OF MILITARY …, published 2016).

For this assay, the target named is T1, modified HCMV gB (homotrimeric complex of modified human cytomegalovirus glycoprotein B) (human cytomegalovirus (HCMV), UniProt F5HB53 25-750).
T1 construct: It runs as a 360 kDa homotrimer under native or partially reducing conditions and as a 120 kDa monomer under fully reducing or denaturing conditions; also called trimeric HCMV gB; HCMV trimeric gB
The experiment in a line: purified proteins mixed 1:1 (molecular ratio) and incubated at room temperature for 2 hours; Western blot under non-reducing conditions. (In general: A western blot detects proteins with antibodies after separation by electrophoresis.)

B1: HCMV gH/gL fusion protein (other)
chain: DATVSVAPTVAEKVPAECPELTRRCLLGEVFQGDKYESWLRPLVNVTRRDGPLSQLIRYRPVTPEAANSVLLDDAFLDTLALLYNNPDQLRALLTLLSSDTAPRWMTVMRGYSECGDGSPAVYTCVDDLCRGYDLTRLSYGRSIFTEHVLGFELVPPSLFNVVVAIRNEATRTNRAVRLPVSTAAAPEGITLFYGLYNAVKEFCLRHQLDPPLLRHLDKYYAGLPPELKQTRVNLPAHSRYGPQAVDARGGGGSGGGGSGGGGSYGAEAISEPLDKAFHLLLNTYGRPIRFLRENTTQCTYNSSLRNSTVVRENAISFNFFQSYNQYYVFHMPRCLFAGPLAEQFLNQVDLTETLERYQQRLNTYALVSKDLASYRSFSQQLKAQDSLGEQPTTVPPPIDLSIPHVWMPPQTTPHGWTESHTTSGLHRPHFNQTCILFDGHDLLFSTVTPCLHQGFYLIDELRYVKITLTEDFFVVTVSIDDDTPMLLIFGHLPRVLFKAPYQRDNFILRQTEKHELLVLVKKDQLNRHSYLKDPDFLDAALDFNYLDLSALLRNSFHRYAVDVLKSGRCQMLDRRTVEMAFAYALALFAAARQEEAGAQVSVPRALDRQAALLQIQEFMITCLSQTPPRTTLLLYPTAVDLAKRALWTPNQITDITSLVRLVYILSKQNQQHLIPQWALRQIADFALKLHKTHLASFLSAFARQELYLMGSLVHSMLVHTTERREIFIVETGLCSLAELSHFTQLLAHPHHEYLSDLYTPCSSSGRRDHSLERLTRLFPDATVPTTVPAALSILSTMQPSTLETFPDLFCLPLGESFSALTVSEHVSYVVTNQYLIKGISYPVSTTVVGQSLIITQTDSQTKCELTRNMHTTHSITAALNISLENCAFCQSALLEYDDTQGVINIMYMHDSDDVLFALDPYNEVVVSSPRTHYLMLLKNGTVLEVTDVVVDATDSRLHHHHHH
notes: It was expressed in CHO DG44 cells; also called monomeric gH/gL; gH/gL heterodimer
For the molecule B1, the binding result was “binds”.
